Like-named read-outs stand apart in the source and are kept apart here. Blank lines part the entries; values can stand above or below the molecule they belong to.
What was measured:
βAR-m23 = βAR-m23 (Meleagris gallopavo, UniProt P07700, A282L/C116L/F327A/F338M/M90V/R68S/Y227A); type: binding, turkey
[1] = Thermostability assay of βAR34-424 and mutants (heat detergent-solubilised receptor 30 min, then [3H]-DHA binding); conditions: heated 30 min without ligand; for Tm: turkey βAR expressed in E. coli, DDM-solubilised, [3H]-DHA binding, mean ± S.E. from duplicates
[2] = Thermostability of β adrenergic receptors expressed in mammalian cells, minus-ligand format; conditions: 0.1% dodecylmaltoside, apo-state heated, 3H-DHA added after
Rant 21 = Rant 21 (Homo sapiens, UniProt P29274, A54L/K122A/T88A/V239A); assay: Competition assay against [3H]ZM241385, detergent-solubilised receptor; type: binding; conditions: versus wild-type A2aR
[3] = Thermostability of A2aR and mutants (ligand binding after or during heating); type: physicochemical
Excerpt: FIG. 12 Flow chart showing the two different assay formats of ligand (+) and ligand (−) used to determine receptor thermostability.
• 1. 315 site-directed mutants made between residues 2-316 of A2aR. • 2. All of these mutants have been assayed for thermostability using an assay measuring agonist and antagonist binding after the heating step (Ligand(−) format as described in FIG. 12). • a. […] Mutations have been combined to generate mutants in a putative antagonist conformation. Wildtype A2aR has a Tm of 31° C. with ZM241385 bound. • a. Rant17 A54L+K122A+L235A Tm 48° C. (ZM241385 bound) • b. Rant19 A54L, T88A, V239A+A204L Tm 47° C. (ZM241385 bound) • c. Rant21 A54L, T88A, V239A+K122A Tm 49° C. (ZM241385 bound) • 4. Mutations from the agonist screen have been combined, but have led to only a very low level of improvement in Tm of +2° C.

[4] = Stability of wild-type and mutant A2aR in different detergents; type: physicochemical

Chain of βAR-m23 (P07700 34-424 R68S/M90V/C116L/Y227A/A282L/F327A/F338M): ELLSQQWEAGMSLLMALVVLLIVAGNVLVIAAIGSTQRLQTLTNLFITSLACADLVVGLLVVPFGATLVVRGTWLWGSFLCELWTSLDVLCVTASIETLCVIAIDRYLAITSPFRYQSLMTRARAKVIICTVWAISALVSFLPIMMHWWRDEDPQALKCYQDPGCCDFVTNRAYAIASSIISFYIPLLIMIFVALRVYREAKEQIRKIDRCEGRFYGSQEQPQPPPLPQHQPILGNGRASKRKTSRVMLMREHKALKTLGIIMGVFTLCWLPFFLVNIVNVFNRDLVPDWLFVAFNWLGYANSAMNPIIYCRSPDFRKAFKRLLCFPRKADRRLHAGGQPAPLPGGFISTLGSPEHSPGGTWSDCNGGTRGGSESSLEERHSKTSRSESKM

Molecule: 1-[4,6-propyl-^3H]-dihydroalprenolol [[^3H]-dihydroalprenolol]
Kd (βAR-m23; membranes, n=2): 6.5 ± 0.2 nM | Kd (βAR-m23; semipurified receptor): 12.5 nM

Molecule: m7-7: βAR34-424 mutant M90V, Y227A, F338M
Tm [1]: 45.2 ± 2.0 °C

Molecule: m6-9: βAR34-424 mutant R68S, Y227A, A234L, A282L, A334L
Tm [1]: 43.7 ± 0.4 °C

Molecule: m6-4: βAR34-424 mutant R68S, Y227A, A234L, A282L
Tm [1]: 41.6 ± 0.1 °C

Molecule: turkey β1: turkey β1 adrenergic receptor transiently expressed in mammalian cells
apparent Tm [2]: 23 °C

Molecule: human β1: human β1 adrenergic receptor
apparent Tm [2]: ~12 °C

Molecule: m10-4: βAR34-424 mutant R68S, M90V, V230A, A334L
Tm [1]: 46.9 ± 1.0 °C

Molecule: M90A: βAR34-424 point mutant
increase in Tm compared to βAR34-424 ([1]; DDM): 8 °C

Molecule: m7-1: βAR34-424 mutant M90V, A282L, F338M
Tm [1]: 43.0 ± 0.8 °C

agonist binding weaker than parent (Rant 21): 2-4 orders of magnitude
B1: Rant 21: A2aR mutant A54L, T88A, V239A+K122A (protein, UniProt P29274 1-412, looked up, variant A54L T88A V239A K122A)
Adenosine receptor A2a: MPIMGSSVYITVELAIAVLAILGNVLVCWAVWLNSNLQNVTNYFVVSLAAADILVGVLAIPFAITISTGFCAACHGCLFIACFVLVLAQSSIFSLLAIAIDRYIAIRIPLRYNGLVTGTRAAGIIAICWVLSFAIGLTPMLGWNNCGQPKEGKNHSQGCGEGQVACLFEDVVPMNYMVYFNFFACVLVPLLLMLGVYLRIFLAARRQLKQMESQPLPGERARSTLQKEVHAAKSLAIIAGLFALCWLPLHIINCFTFFCPDCSHAPLWLMYLAIVLSHTNSVVNPFIYAYRIREFRQTFRKIIRSHVLRQQEPFKAAGTSARVLAAHGSDGEQVSLRLNGHPPGVWANGSAPHPERRPNGYALGLVSGGSAQESQGNTGLPDVELLSHELKGVCPEPPGLDDPLAQDGAGVS
Tm +antagonist ([3]; 1% DDM (no glycerol), antagonist-occupied state): 49 °C | Tm −antagonist ([3]; 1% DDM (no glycerol), apo-state, antagonist binding): 41 °C | Tm ([3]; ZM241385 bound): 49 °C | Tm Antagonist-binding ([4]; 0.003% LDAO): 42 °C | Tm Antagonist-binding ([4]; 0.006% FC12): 49 °C | Tm Antagonist-binding ([4]; 0.01% DDM): 39 °C | Tm Antagonist-binding ([4]; 0.1% DM): 28 °C | Tm Antagonist-binding ([4]; 0.3% NG): 22 °C | Tm Antagonist-binding ([4]; 0.3% NM): 25 °C | Tm Antagonist-binding ([4]; 0.6% OG): 23 °C
